Target: T1, human IL-2 receptor (human, UniProt P01589 22-272; P14784 27-551; P31785 23-369)
T1 construct: whole, on cells; also called IL-2Rα, IL-2Rβ, IL-2Rγ; HEK-Blue IL-2 cells
T1 sequence (looked up) 1: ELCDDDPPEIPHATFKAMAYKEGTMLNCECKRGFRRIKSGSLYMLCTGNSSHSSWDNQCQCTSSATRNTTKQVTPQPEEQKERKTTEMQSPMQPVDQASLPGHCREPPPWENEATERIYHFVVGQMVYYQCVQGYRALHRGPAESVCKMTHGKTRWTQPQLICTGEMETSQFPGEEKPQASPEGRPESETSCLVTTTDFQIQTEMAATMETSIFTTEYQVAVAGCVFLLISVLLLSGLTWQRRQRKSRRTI
T1 sequence (looked up) 2: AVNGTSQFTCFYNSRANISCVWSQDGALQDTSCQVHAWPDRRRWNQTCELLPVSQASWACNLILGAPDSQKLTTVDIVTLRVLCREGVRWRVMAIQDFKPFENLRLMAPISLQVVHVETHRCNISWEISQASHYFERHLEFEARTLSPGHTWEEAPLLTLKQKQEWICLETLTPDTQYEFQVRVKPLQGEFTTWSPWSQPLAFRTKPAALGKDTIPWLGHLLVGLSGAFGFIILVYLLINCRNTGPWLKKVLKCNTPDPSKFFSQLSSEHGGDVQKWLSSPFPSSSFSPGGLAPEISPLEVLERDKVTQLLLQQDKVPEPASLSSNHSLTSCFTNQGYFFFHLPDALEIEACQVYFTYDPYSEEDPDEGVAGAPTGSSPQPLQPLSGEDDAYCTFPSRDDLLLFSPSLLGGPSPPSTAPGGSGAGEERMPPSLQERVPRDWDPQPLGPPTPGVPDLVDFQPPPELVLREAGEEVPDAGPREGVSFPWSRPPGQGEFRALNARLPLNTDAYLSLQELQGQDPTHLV
T1 sequence (looked up) 3: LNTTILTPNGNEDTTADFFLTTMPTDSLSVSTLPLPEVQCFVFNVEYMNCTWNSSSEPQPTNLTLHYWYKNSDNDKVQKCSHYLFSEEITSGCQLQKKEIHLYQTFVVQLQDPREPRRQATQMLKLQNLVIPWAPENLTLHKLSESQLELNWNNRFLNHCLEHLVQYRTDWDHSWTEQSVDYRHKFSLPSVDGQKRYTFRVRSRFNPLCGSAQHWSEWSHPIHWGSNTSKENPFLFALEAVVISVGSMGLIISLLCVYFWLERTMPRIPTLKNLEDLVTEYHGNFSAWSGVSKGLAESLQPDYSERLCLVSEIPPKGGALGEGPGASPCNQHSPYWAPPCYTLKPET
Assay: FACS on HEK-Blue IL-2 cells (IL-2 receptor, no PD-1)

- binding result: no binding
B1: ligand-IL-2 mutant-PD-L2-Fc (Fc fusion)
chain 1: LFTVTVPKELYIIEHGSNVTLECNFDTGSHVNLGAITASLQKVENDTSPHRERATLLEEQLPLGKASFHIPQVQVRDEGQYQCIIIYGVAWDYKYLTLKVKASYRKINTHILKVPETDEVELTCQATGYPLAEVSWPNVSVPANTSHSRTPEGLYQVTSVLRLKPPPGRNFSCVFWNTHVRELTLASIDLQSQMEPRTHPTGGGGSAPTSSSTKKTQLQLEHLLLDLQMILNGINNYKNPKLTDMLTFEFYMPKKATELKHLQCLERELKPLEEVLNLAQSKNFHLRPRDLISNINVIVLELKGSETTFMCEYADETATIVEFLNRWITFCQSIISTLTDKTHTCPPCPAPEDEGGPSVFLFPPKPKDTLMISRTPEVTCVVVDVSHEDPEVKFNWYVDGVEVHNAKTKPREEQYNSTYRVVSVLTVLHQDWLNGKEYKCKVSNKALPAPIEKTISKAKGQPREPQVYVYPPSREEMTKNQVSLTCLVKGFYPSDIAVEWESNGQPENNYKTTPPVLDEDGSFALVSKLTVDKSRWQQGNVFSCSVMHEALHNHYTQKSLSLSPGK
chain 2: LFTVTVPKELYIIEHGSNVTLECNFDTGSHVNLGAITASLQKVENDTSPHRERATLLEEQLPLGKASFHIPQVQVRDEGQYQCIIIYGVAWDYKYLTLKVKASYRKINTHILKVPETDEVELTCQATGYPLAEVSWPNVSVPANTSHSRTPEGLYQVTSVLRLKPPPGRNFSCVFWNTHVRELTLASIDLQSQMEPRTHPTGGGGSDKTHTCPPCPAPEKKGGPSVFLFPPKPKDTLMISRTPEVTCVVVDVSHEDPEVKFNWYVDGVEVHNAKTKPREEQYNSTYRVVSVLTVLHQDWLNGKEYKCKVSNKALPAPIEKTISKAKGQPREPQVYVLPPSREEMTKNQVSLLCLVKGFYPSDIAVEWESNGQPENRYMTWPPVLDSDGSFFLYSKLTVDKSRWQQGNVFSCSVMHEALHNHYTQKSLSLSPGK
notes: also called IL-2(R38D/K43E/E61R)/PD-L2-Fc immunocytokine; construct #11

Source: patent US20230167164A1 (IMMUNOWAKE, published 2023)
